In PMC12591191, “SIRT6 Lysine‐Demyristoylates ATF2 to Ameliorate Vascular Injury via PRKCD/VE‐Cadherin Pathway Regulating Vascular Endothelial Barrier” (Advanced Science, 2025):
Read-outs that look alike come from different tables or passages of the source. Where a SMILES comes first, the peptide text is derived from it. The star is where a group is joined. Biotin = O=C1N[C@H]2[C@H](CS[C@H]2CCCCC(=O)*)N1; Myristoyl = CCCCCCCCCCCCCC(=O)*

Experiments:
[1] = test system: SIRT6; details: SIRT6 inhibitor, cited from earlier work
Text: Table 2 The inhibitors of SIRT6 were represented with structure, IC50, category, company, indications, and reference. | column: IC50

[2] = biological target: T1, SIRT6 (Homo sapiens, UniProt Q8N6T7); experiment: Biolayer interferometry, SIRT6; assay type: binding; details: BLI, PBS-T, cofactor 5 mM
T1 construct: the full‐length human SIRT6 (1‐355aa) with the flag tag at the C‐terminus; His-tag (N); made in house; host or cells: E. coli ArcticExpress (DE3), pET28a
T1 sequence (Q8N6T7 whole entry): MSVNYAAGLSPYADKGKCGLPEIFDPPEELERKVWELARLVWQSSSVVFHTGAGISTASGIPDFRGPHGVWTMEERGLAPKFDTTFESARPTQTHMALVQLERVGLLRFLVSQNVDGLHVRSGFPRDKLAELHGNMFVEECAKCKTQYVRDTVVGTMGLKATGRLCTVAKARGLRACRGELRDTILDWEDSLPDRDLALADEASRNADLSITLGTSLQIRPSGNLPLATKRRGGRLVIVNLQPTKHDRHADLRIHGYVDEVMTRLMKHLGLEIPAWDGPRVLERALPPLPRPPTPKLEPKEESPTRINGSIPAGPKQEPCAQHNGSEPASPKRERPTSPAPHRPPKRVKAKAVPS
Text: (§1) The plasmid pUC57‐SIRT6 contained the full‐length human SIRT6 (1‐355aa) with the flag tag at the C‐terminus. The PCR fragment SIRT6‐Flag from pUC57‐SIRT6 was inserted into pET28a vector to obtain the plasmid pET28a‐SIRT6. Then the pET28a‐SIRT6G60A, pET28a‐SIRT6R65A, pET28a‐SIRT6S56Y, and pET28a‐SIRT6H133Y expression plasmids were obtained through site‐directed mutagenesis by PCR. These SIRT6 expression plasmids were used for SIRT6 expression and purification in E.coli.
(§2) The expression plasmids were transformed in the E.coli Arctic Express (DE3) cells, respectively. The E.coli cells were cultured at 37 °C in 2X YT culture medium. When OD600 reached 0.8, cells were induced by 0.2 mM isopropyl‐1‐thio‐β‐D‐galactopyranoside (IPTG) for 18–20 h at 16 °C. Then, cells were harvested by centrifugation at 6000 rpm for 10min at 4 °C and resuspended in lysis buffer (20 mM Tris‐HCl pH 7.2, 500 mM NaCl, 2% glycerol). Cells were lysed by a high‐pressure homogenizer (Avestin), and centrifuged at 15 000 rpm for room temperature min at 4 °C. […]
(§3) To determinate the affinity of SIRT6 proteins to myristoylated peptides, BLI assays were performed in 96 well plates using an Octet Red96 System. […] Meanwhile, the protein‐peptide affinities were also determined after adding several cofactors (5 mM), such as Mg^2+, Zn^2+, ATP, ADP, AMP, cAMP, NAD^+.

[3] = biological target: T2, SIRT6 G60A (Homo sapiens, UniProt Q8N6T7, G60A); experiment: Biolayer interferometry, G60A mutant; assay type: binding; details: BLI, Octet Red96, PBS-T, 120 µM biotin peptide on sensor, analyte G60A 0.18 to 5.5 µM
T2 construct: the full‐length human SIRT6 (1‐355aa) with the flag tag at the C‐terminus; made in house; host or cells: E. coli ArcticExpress (DE3), pET28a
T2 sequence (Q8N6T7 whole entry G60A): as the sequence (Q8N6T7 whole entry) above, with G60A counted along it
Text: as §1, §2, §3

[4] = test system: aortic endothelium (VE-Cadherin junction continuity); experiment: En face VE-Cadherin staining of descending aortas; assay type: in vivo, mouse
Procedure: Endothelial specific Sirt6 KO (ecSirt6^−/− ) mice (on a C57/Bl6J background) were developed by Cyagen Biosciences lnc. and litter of wild‐type (WT) mice served as control. Genotyping by tail preparation and PCR were performed at 2 weeks of age. All animal procedures were conducted under animal welfare guidelines and were approved by the Animal Ethics Committee of Zhongshan Hospital, Fudan University (EARIA‐389).
The cultivation and collection of mice were described above. Remove the outer membrane and longitudinally cut the thoracic aorta of mice for surface staining. After being fixed in 4% paraformaldehyde for 20 min, 0.5% Triton X‐100 was infiltrated into PBS for 30 min, and 10% normal goat serum was blocked in PBS for 1 h. Then, the corresponding primary antibody was incubated overnight at 4 °C. Then, wash HUVECs or tissues three times with PBS, coupled with the corresponding Alexa Fluor 488‐conjugated goat anti‐rabbit IgG (Thermo, cat#A‐11008) or Alexa Fluor 594 ‐conjugated goat anti‐mouse IgG (Thermo, cat#A‐11 005) (1:500; at room temperature, place in a closed solution for 1 h). Cover the slide with DAPI containing fluorine shielding adhesive medium. Randomly select representative images from each group. Fluorescence signal detection was performed using Leica confocal laser scanning microscope (Leica SP8).

[5] = test system: ATF2 localization and PRKCD/VE‐cadherin axis in HUVECs; experiment: ALK14 versus myristic acid, ATF2 localization and PRKCD/VE-cadherin axis; assay type: cell-based; details: each 10 μg/ml, 12 hours
Procedure: Protein samples were separated by SDS/PAGE and transferred to the PVDF membrane. The membrane was blocked with 5% BSA in TBST (25 mM Tris, pH 7.4, 150 mM NaCl, 0.1% Tween‐20), incubated with primary antibodies and secondary antibodies in TBST, and then treated with ECL Plus western blotting detection reagents (Bio‐rad). The chemiluminescence signal was analyzed by ChemiDoc imaging system (Bio‐rad).
HMEC‐1, obtained from Shanghai Zhong Qiao Xin Zhou Biotechnology, was cultured in MCDB131 medium containing 10% foetal bovine serum (FBS) and 1% antibiotics (penicillin and streptomycin) in 5% CO2 incubator at 37 °C. HUVEC, obtained from Shanghai Zhong Qiao Xin Zhou Biotechnology, were cultured in ECM medium containing 5% FBS, 1% antibiotics (penicillin and streptomycin) and 1% endothelial cell growth supplement (ECGS) in 5% CO2 incubator at 37 °C. HEK 293T were obtained from ATCC, and cultured in Dulbecco's modified Eagle's medium (DM EM) containing 10% FBS and 1% antibiotics (penicillin and streptomycin) in 5% CO2 incubator at 37 °C. The SIRT6 KO 293T cells were constructed by Hanbio Biotechnology, the SIRT6 gRNA was 5′‐[…]‐3′. SIRT6 overexpression and knockdown recombinant lentivirus were constructed by Hanbio Biotechnology, the vector pGLV3‐harboring SIRT6 and SIRT6 shRNA (5′‐[…]‐3′) were used for lentivirus packaging. […]

[6] = test system: B‐H3K9^Ac‐5R; experiment: Deacetylase activity by HPLC; assay type: biochemical; details: UV 220 nm, 6 µM enzyme, 450 µM peptide, Tris‐HCl pH 8.0, 6 mM MgCl2, 1 mM NAD^+, 30 °C, 4 h
Procedure: (§4) The expression plasmids were transformed in the E.coli Arctic Express (DE3) cells, respectively. The E.coli cells were cultured at 37 °C in 2X YT culture medium. When OD600 reached 0.8, cells were induced by 0.2 mM isopropyl‐1‐thio‐β‐D‐galactopyranoside (IPTG) for 18–20 h at 16 °C. Then, cells were harvested by centrifugation at 6000 rpm for 10min at 4 °C and resuspended in lysis buffer (20 mM Tris‐HCl pH 7.2, 500 mM NaCl, 2% glycerol). Cells were lysed by a high‐pressure homogenizer (Avestin), and centrifuged at 15 000 rpm for […] min at 4 °C. The supernatants were incubated with Ni^+ Sepharose (GE Healthcare) which was pre‐equilibrated in lysis buffer. The resin was washed with 20 column volumes of lysis buffer supplemented with 50 mM imidazole, and then the recombinant proteins were eluted with lysis buffer supplemented with 500 mM imidazole. The eluted fractions were pooled, buffer exchanged (20 mM Tris‐HCl pH 7.2, 250 mM NaCl, 10% glycerol), and concentrated. Finally, the endotoxin was removed by the Pierce High‐Capacity Endotoxin Removal Spin Columns. The purified proteins were stored at −80 °C.
(§5) The peptides B‐H3K9‐5R (biotin‐[…]), B‐H3K9^Ac‐5R (biotin‐KQTARK^Ac[…]), and B‐H3K9^Myr‐5R (biotin‐KQTARK^Myr[…]) were synthesized. Five arginine residues were added to ensure that the peptides were soluble in water. SIRT6 protein SIRT6 and mutants (6 µM) were incubated with the peptides (450 µM) in the reaction system ([…] Tris‐HCl pH 8.0, 6 mM MgCl2, 1 mM NAD^+) at 30 °C. After 4 h, the reactions were terminated by adding 4% TFA at 37 °C for 10 min. After centrifuging at 12 000rpm for 15 min at room temperature, the supernatants were collected and analyzed via HPLC using an Aeris peptide XB‐C18 column (150 × 4.6 mm, 3.6 µm; Phenomenex, USA). The mobile phase consisted of solvent A (0.1% TFA in HPLC‐grade H2O) and solvent B (0.1% TFA in HPLC‐grade acetonitrile). Peptides were eluted in a linear gradient of 0–90% solvent B at 1 ml min^−1 over 19 min. The column temperature was set at 25 °C, and the peptides were monitored with UV light (220 nm).

[7] = test system: B‐H3K9^Myr‐5R; experiment: Demyristoylase activity by HPLC; assay type: biochemical; details: UV 220 nm, 6 µM enzyme, 450 µM peptide, Tris‐HCl pH 8.0, 6 mM MgCl2, 1 mM NAD^+, 30 °C, 4 h
Procedure: as §4, §5

[8] = biological target: T3, SIRT6 H133Y (dSIRT6) (Homo sapiens, UniProt Q8N6T7, H133Y); experiment: Co-immunoprecipitation enrichment of myristoylated peptide; assay type: binding; details: Co-IP with negative control peptide, n=3
T3 construct: the full‐length human SIRT6 (1‐355aa) with the flag tag at the C‐terminus; made in house; host or cells: E. coli ArcticExpress (DE3), pET28a
T3 sequence (Q8N6T7 whole entry H133Y): as the sequence (Q8N6T7 whole entry) above, with H133Y counted along it
Procedure: SIRT6/mutants (10 µM) were incubated with B‐H3K9^Myr‐5R or B‐H3K9‐5R (7 µM) in different IP buffers based on buffer (1X PBS, 0.2% tween‐20) at 30 °C for 4h. Then the mixtures were incubated with magnetic flag‐beads at room temperature for 2h. Then, tubes were placed on a magnetic rack for 1 minute, and the supernatants were discarded. The beads were washed three times with an IP buffer and eluted with different elution buffers. The eluants and beads were then analyzed by western blotting with biotin monoclonal antibody or SIRT6 antibody.

Molecule | deacetylase activity [6] | demyristoylase activity [7] | also measured
CN1CCN(c2ccc([N+](=O)[O-])c(N)c2)CC1 [5‐(4‐methylpiperazin‐1‐yl)‐2‐nitroaniline] | – | – | IC50 ([1]; ref [65]): 4.93 µM
Nc1ncnc2c1ncn2[C@@H]1O[C@H](COP(=O)(O)OP(=O)(O)O)[C@@H](O)[C@H]1O [ADP] | – | – | effect of cofactor on SIRT6 affinity for B‐H3K9^Myr‐5R [2]: significantly enhanced SIRT6 affinity
Nc1ncnc2c1ncn2[C@@H]1O[C@H](COP(=O)(O)OP(=O)(O)OP(=O)(O)O)[C@@H](O)[C@H]1O [ATP] | – | – | effect of cofactor on SIRT6 affinity for B‐H3K9^Myr‐5R [2]: significantly enhanced SIRT6 affinity
CCCCCCCCCCCCCC(=O)NCCCC[C@H](NC(=O)[C@H](CCCNC(=N)N)NC(=O)[C@H](C)NC(=O)[C@@H](NC(=O)[C@H](CCC(N)=O)NC(=O)[C@H](CCCCN)NC(=O)CCCC[C@@H]1SC[C@@H]2NC(=O)N[C@@H]21)[C@@H](C)O)C(=O)N[C@@H](CO)C(=O)N[C@H](C(=O)NCC(=O)NCC(=O)N[C@@H](CCCCN)C(=O)N[C@@H](C)C(=O)N[C@@H](CCCNC(=N)N)C(=O)N[C@@H](CCCNC(=N)N)C(=O)N[C@@H](CCCNC(=N)N)C(=O)N[C@@H](CCCNC(=N)N)C(=O)N[C@@H](CCCNC(=N)N)C(=O)O)[C@@H](C)O [B‐H3K9^Myr‐5R] (Biotin-KQTARK(Myristoyl)STGGKARRRRR-OH) | – | – | Kd [3]: 1.3 ± 0.11 µM
Cc1nn(C)c(C)c1NS(=O)(=O)c1c(Cl)cc(-c2ccnc(N3CCNCC3)c2)cc1Cl [DDD85646] | – | – | therapeutic efficacy ([4]; 100 mg kg^−1 day^−1, n = 6–8): suboptimal therapeutic efficacy
NC(=O)c1ccc[n+]([C@@H]2O[C@H](COP(=O)([O-])O)[C@@H](O)[C@H]2O)c1 [NMN] | – | – | endothelial damage induced by high‐fat diet in SIRT6‐deficient endothelium ([4]; NMN 100 mg kg^−1 day^−1, n = 6–8): partially rescued endothelial damage
O=C(Nc1ccc(O)c(C(=O)O)c1)c1cccc(NC(=O)c2ccco2)c1 [OSS‐128167] | – | – | IC50 ([1]; ref [68]): 89 µM
CCCCCCCCCCCCCC(=O)O [natural myristic acid, Myristic acid] | – | – | impact on ATF2 localization and PRKCD/VE‐cadherin axis, myristic acid versus ALK14 [5]: equivalent impacts
Diquercetin | – | – | IC50 ([1]; ref [64]): 130 µM
G60A: SIRT6 G60A mutant | without detectable deacetylase activity | strong demyristoylase activity | –
H133Y: SIRT6 H133Y mutant | lacked both enzymatic activities | lacked both enzymatic activities | selectivity of H133Y for myristoylated peptide [8]: confirmed the selectivity
R65A: SIRT6 R65A mutant | weak deacetylase activity | lacked demyristoylase activity | –
S56Y: SIRT6 S56Y mutant | lacked both enzymatic activities | lacked both enzymatic activities | –
SIRT6 WT: full‐length human SIRT6 (1‐355aa) with the flag tag at the C‐terminus, expressed in E.coli | weak deacetylase activity | significant demyristoylase activity | –
